Key:
AAV9 capsid [1] = assay: AAVX affinity HPLC at room temperature (24 C), qPCR of flow-through
PHP.eB capsid = assay: as above
AAV1 capsid = assay: AAVX affinity HPLC, five consecutive small-scale preps on the same resin, qPCR of fractions
PHP.B capsid = assay: static binding assay on AAVX resin, qPCR of vector genomes
AAV4 capsid = assay: as above
AAV9 capsid [2] = assay: as above
AAV7 capsid = assay: as above
AAV8 capsid = assay: as above
rh32.33 capsid = assay: as above
AAV2_HSPG capsid = assay: as above
AAV7m8 capsid = assay: as above
[3] = molecular target: AAV2 capsid (AAV particles of serotype AAV2) (UniProt P03135); assay: as above
AAV5 capsid = assay: as above
AAV6.2 capsid = assay: as above
rh10 capsid = assay: as above
Anc80 capsid = assay: as above

Chain of UniProt P03135 (P03135 whole entry): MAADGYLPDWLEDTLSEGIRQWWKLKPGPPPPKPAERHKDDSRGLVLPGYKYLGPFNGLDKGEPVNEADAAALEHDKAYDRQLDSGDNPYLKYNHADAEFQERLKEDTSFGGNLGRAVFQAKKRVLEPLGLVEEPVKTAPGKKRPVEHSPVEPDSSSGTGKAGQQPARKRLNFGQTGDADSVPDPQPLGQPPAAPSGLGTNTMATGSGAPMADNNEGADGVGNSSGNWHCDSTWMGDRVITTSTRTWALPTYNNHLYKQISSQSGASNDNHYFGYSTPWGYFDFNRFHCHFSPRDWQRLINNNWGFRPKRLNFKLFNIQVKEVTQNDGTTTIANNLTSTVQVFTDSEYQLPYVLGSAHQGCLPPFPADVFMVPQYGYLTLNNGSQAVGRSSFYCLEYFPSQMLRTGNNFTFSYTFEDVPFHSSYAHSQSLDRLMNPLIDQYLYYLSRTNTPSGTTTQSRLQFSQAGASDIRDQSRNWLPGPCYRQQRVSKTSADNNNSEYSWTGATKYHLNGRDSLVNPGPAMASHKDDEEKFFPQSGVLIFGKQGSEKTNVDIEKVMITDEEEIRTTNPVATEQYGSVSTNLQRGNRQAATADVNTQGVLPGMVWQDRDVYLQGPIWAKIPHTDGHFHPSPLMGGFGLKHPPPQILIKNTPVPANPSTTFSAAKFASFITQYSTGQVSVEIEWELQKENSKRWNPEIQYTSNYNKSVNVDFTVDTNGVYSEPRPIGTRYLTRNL

For “POROS CaptureSelect AAVX resin ligand (camelid heavy-chain-only single-domain antibody fragment linked to poly[styrene divinylbenzene] beads) (VHH)”, the fraction of input AAV in the flow-through (AAV9 capsid [1]) was less than 5%, the fraction of input AAV in the flow-through (PHP.eB capsid) was less than 5% and the percent of input virus in flow-through (AAV1 capsid) was less than 2%. For the same substance, the recovery (percent vector genomes of input) (PHP.B capsid) was greater than 95%, the recovery (percent vector genomes of input) (AAV4 capsid) was greater than 95% and the recovery (percent vector genomes of input) (AAV9 capsid [2]) was greater than 95%. For the same substance, the recovery (percent vector genomes of input) (AAV7 capsid) was greater than 95%, the recovery (percent vector genomes of input) (AAV8 capsid) was greater than 95% and the recovery (percent vector genomes of input) (rh32.33 capsid) was greater than 95%. For the same substance, the recovery (percent vector genomes of input) (AAV2_HSPG capsid) was greater than 95%, the recovery (percent vector genomes of input) (AAV7m8 capsid) was greater than 95% and the recovery (percent vector genomes of input) [3] was greater than 95%. It also gave a recovery (percent vector genomes of input) (AAV5 capsid) greater than 95%, a recovery (percent vector genomes of input) (AAV6.2 capsid) greater than 95% and a recovery (percent vector genomes of input) (rh10 capsid) greater than 95%. It also gave a recovery (percent vector genomes of input) (Anc80 capsid) of 80%.

Reference: patent publication US20230303983A1
